The conditions of series [1]: cited from earlier work.
Series [2] relates to κ-casein in milk and GMP-protein in whey. Briefly: Liberation of free sialic acid from milk and whey by sialidase (RP-HPLC, DMB labelling). In kind it is biochemical. The note with it: milk and whey incubated with sialidase ZJW 0.4 U/ml at room temperature (20-21° C.). From the text:
Free sialic acid can be analyzed by means of reverse-phase HPLC, using fluorescence detection with excitation at 310 nm and emission 448 nm after labelling with DMB compound. This method was recently described in literature (M. J. Martin et al Anal. Bional. Chem., 2007, 387, 2943-29-49) and allowed fast and accurate determination of free sialic contents in samples.
Milk was reconstituted by using NILAC low heat skim milk powder (NIZO, The Netherlands); whey was obtained from a local cheddar making facility. The milk and whey samples were treated as follows: milk and whey was incubated separately with sialidase ZJW (0.4 U/ml) at room temperature (20-21° C.) and the reaction was terminated at different moments of time by heating the samples in water bath at 95° C. for 5 minutes. A series of several sialidase ZJW concentrations and incubation times were performed. The samples used for HPLC analysis need to be free from proteins. Therefore, samples were filtered with a Nanosep ultra filtration Eppendorff (10 KD) using centrifugation for 15 minutes at 14000 g. After centrifugation, the free protein supernatant was collected and diluted 100 times with milliQ water in order to measure the sialic acid in a proper range of concentrations (measuring range using RP HPLC method is 5 fmol-5 nmol of sialic acid). […]

A short description of series [3]: Proteolytic (endo-protease) activity on substrates ZAAXpNA. The following applies: purified enzyme preparation. In kind it is biochemical.

In the case of `CC(=O)N[C@H]1[C@H]([C@H](O)[C@H](O)CO)OC(O)(C(=O)O)C[C@@H]1O` (stereo partly shown) [Sialic acids, N-acetylneuraminic acid], in series [1], the pKa result is on record as “around 2.2”.

B1: sialidase ZJW: secreted fungal sialidase from Penicillium chrysogenum (SEQ ID NO: 3), overexpressed in Aspergillus niger (protein, listed as Penicillium chrysogenum)
chain: MLSSLMYLARECSILRAISLCAILAVATPAASASVTAKHTLATNGKGLFPQYRIVALASLGNGVLLASYDGRPDGGDSPSPNSILQRRSTDGGKTWGNPTYIARGQPASSTLQQYGFSDPSYVVDSGTGKVFNFHVFSKNQGFLNSEIGNDDTDLNIVSAEVSVSTDGGLSWTTDPDHESSLPPVASADVANVGGITGMFASSGEGIQLKYGKHAGRLVQQFLGKVIQSDGSKVSQAYSVYSDDGGAIWKMGKVIGTGMDENKVVELSNGNLMLNSRPSDGSGYRKVATSTDGGETWSTPASETQLPDPGNNGAITRMYPDAAHGSANAKILLFTNANSKTSRSNGTIRYSCDDGKTWSSGAVFQSGSMSYSTVTALGDDRFGIFYEGDSNDLVYIEVSKDFIGVSC
With B1, in series [2] (after 4 hours), the “free sialic acid levels (concentration)” value is “approximately 220 mg/L”. The levels of free sialic acid in series [2] (after 20 hours of incubation) was 250 mg/L. In series [3], the “proteolytic activity on a series of substrates ZAAXpNA” value is “does not show proteolytic activity”.

The record behind these values is US20140342037A1, “NOVEL PREBIOTICS” (DSM IP ASSETS B.V., priority 2007, published 2014).
